Consider one molecule from US20040224408A1, “THAP proteins as nuclear receptors for chemokines and roles in transcriptional regulation, cell proliferation and cell differentiation” (published 2004).

The data set concerns the target T1, THAP1 THAP domain (Homo sapiens, UniProt Q9NVV9 SEQ:1-90).
T1 sequence: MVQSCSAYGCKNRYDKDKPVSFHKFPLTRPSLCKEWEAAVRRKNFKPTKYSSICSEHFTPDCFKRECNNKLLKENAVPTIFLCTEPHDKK
The data set can be described thus: EMSA; also no competition at 50-250x molar excess. The note with it: tags: C-terminal His6 (pET-21c); label: 32P. The procedure: To confirm that the THAP domain is a novel sequence specific DNA-binding domain, electrophoretic mobility shift assays (EMSA) were carried out using wild-type or mutant THAP domain responsive elements (THRE) determined by SELEX (see Example 28 and FIGS. 18 and 24). Double-stranded probes used in EMSA experiments were purified on 12% polyacrylamide gels, ³²P end labeled with T4 polynucleotide kinase and quantified by Cerenkov counting. About 20 ng of purified THAP domain from human THAP1 (prepared as described in Example 28) was incubated with 30000 cpm of the appropriate probe (about 2 ng). Binding reactions were carried out for 10 minutes at room temperature in 20 μl binding buffer (20 mM Tris-HCl pH 7.5, 100 mM KCl, 0.1% NP-40, 100 μg/ml BSA, 2.5 mM DTT, 5% glycerol, 200 ng poly (dI-dC)). Electrophoresis was performed on 8% (29:1) polyacrylamide gels containing 5% glycerol. Gels were run in 0.25×TBE at 150V and 4° C., dried and exposed on a phosphoimager screen (Molecular Dynamics). […]
A general note: In EMSA bound probe runs differently from free probe, usually more slowly.

B1: 3mut1 (dsDNA)
DNA 1: AGCAAGTAATTTCAAACTACTTCAT
DNA 2: ATGAAGTAGTTTGAAATTACTTGCT
As to B1, the binding result is given as “no binding”.
